{"source": "the supplement of paper PMC12042874", "note": "± gives the uncertainty stated by the source."}
{"test": "amyloid nucleation score (Sup35N fusion, yeast selection) (log enrichment); library NNK1; higher = more nucleation; inactive = no reads after selection", "outline": "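The nucleation score is the DiMSum log enrichment of output over input reads, centred on the mode score of non-aggregating sequences. Only sequences with 100 or more input reads were scored, using Illumina sequencing of input and output plasmid inserts. Psi-negative yeast expressing Sup35N fused to peptides of 20 random codons were induced 24 hours with 100 μM copper sulfate and grown 7 days at 30°C on medium lacking adenine and uracil.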"}
{"substance": "GIFKVEHFFKFMYDLIVSKL", "amyloid nucleation score": "-0.312 ± 0.27"}
{"substance": "GIFSNLEVGYKPKN", "amyloid nucleation score": "-0.694 ± 0.39"}
{"substance": "GIGMRGVQHSSCEVARYWGS", "amyloid nucleation score": "1.12 ± 0.35"}
{"substance": "GIKFQSVGGGVVANSVR", "amyloid nucleation score": "inactive"}
{"substance": "GILFWSGL", "amyloid nucleation score": "1.07 ± 0.66"}
{"substance": "GILYQV", "amyloid nucleation score": "-0.403 ± 0.29"}
{"substance": "GIQLTVFGLLLCFGTGLKVF", "amyloid nucleation score": "0.078 ± 0.6"}
{"substance": "GIRPNIANFSYKVHHPVLRG", "amyloid nucleation score": "inactive"}
{"substance": "GITLSIAFLKAYLCRSKGGS", "amyloid nucleation score": "2.62 ± 0.14"}
{"substance": "GIWCFACMSKFMYTRFSYN", "amyloid nucleation score": "-1.02 ± 0.67"}
{"substance": "GKISICTRISMYSQSFVWIP", "amyloid nucleation score": "-0.109 ± 0.45"}
{"substance": "GKNWVRPRPGLVTNTKEYES", "amyloid nucleation score": "-0.46 ± 0.76"}
{"substance": "GKQHSLS", "amyloid nucleation score": "-1.44 ± 1.9"}
{"substance": "GKYILYDQCSNTINSGKLSI", "amyloid nucleation score": "inactive"}
{"substance": "GKYMFPCCMTAITQKLRPRR", "amyloid nucleation score": "-0.108 ± 0.33"}
{"substance": "GLAWTYLRPW", "amyloid nucleation score": "0.143 ± 0.32"}
{"substance": "GLCYNEVDAVASGESGDDRG", "amyloid nucleation score": "-0.376 ± 0.45"}
{"substance": "GLDFCIVRACTKRYSWNQLG", "amyloid nucleation score": "1.69 ± 0.56"}
{"substance": "GLFVREFPLDMIVVMVRSMC", "amyloid nucleation score": "-0.017 ± 0.97"}
{"substance": "GLGFTGWF", "amyloid nucleation score": "0.708 ± 0.73"}
{"substance": "GLKALILNSSSCCRARFGAA", "amyloid nucleation score": "0.307 ± 0.23"}
{"substance": "GLKIQPLCS", "amyloid nucleation score": "0.373 ± 0.49"}
{"substance": "GLLLSCSWNIDVSA", "amyloid nucleation score": "0.235 ± 0.56"}
{"substance": "GLLRLDRVNISALICHQVNV", "amyloid nucleation score": "0.873 ± 0.62"}
{"substance": "GLPKSFM", "amyloid nucleation score": "-0.981 ± 1.3"}
{"substance": "GLQSKV", "amyloid nucleation score": "-0.974 ± 2.4"}
{"substance": "GLRALEMSLSES", "amyloid nucleation score": "inactive"}
{"substance": "GLRQYF", "amyloid nucleation score": "-0.317 ± 0.84"}
{"substance": "GLSGPRRQMSYMGWQRVRF", "amyloid nucleation score": "-0.247 ± 1.1"}
{"substance": "GLTCSKAAIKRLG", "amyloid nucleation score": "-0.367 ± 0.54"}
{"substance": "GLTINNSI", "amyloid nucleation score": "0.588 ± 0.38"}
{"substance": "GLWLKLLVDLKHMKIEHPWH", "amyloid nucleation score": "0.933 ± 0.72"}
{"substance": "GMMHYRFLIFFWYTSRTAYW", "amyloid nucleation score": "-0.355 ± 0.84"}
{"substance": "GMRVMRYYLPRGNQKFGESR", "amyloid nucleation score": "0.823 ± 0.63"}
{"substance": "GMWCLFRKCSVA", "amyloid nucleation score": "inactive"}
{"substance": "GNAFFTYMINNYVSYFWHMP", "amyloid nucleation score": "6.42 ± 0.059"}
{"substance": "GNCWYV", "amyloid nucleation score": "-0.16 ± 0.31"}
{"substance": "GNDLNRREVELGLNSIYKSY", "amyloid nucleation score": "0.711 ± 0.73"}
{"substance": "GNKDDTV", "amyloid nucleation score": "-1.6 ± 1.1"}
{"substance": "GNNLHLRS", "amyloid nucleation score": "-0.121 ± 0.66"}
{"substance": "GNPGFELWLLSMLIGA", "amyloid nucleation score": "inactive"}
{"substance": "GNSYLILNGRSYSRIFARSS", "amyloid nucleation score": "inactive"}
{"substance": "GNVFRLWLNM", "amyloid nucleation score": "0.369 ± 0.38"}
{"substance": "GNWTGGYCVCGRQSSLIVVE", "amyloid nucleation score": "-0.016 ± 1.7"}
{"substance": "GPFGLGSMSGSIKWRYHVCC", "amyloid nucleation score": "0.528 ± 0.43"}
{"substance": "GPISLWSPLRSVN", "amyloid nucleation score": "0.444 ± 0.84"}
{"substance": "GPKKTLMFPSFISDSCARKG", "amyloid nucleation score": "0.535 ± 1.2"}
{"substance": "GPLINTDELWIWSAVCCCRL", "amyloid nucleation score": "-0.781 ± 1.9"}
{"substance": "GPRDFGDAWCYTSNNVKSCS", "amyloid nucleation score": "0.216 ± 0.48"}
{"substance": "GPSWFGVPTAAFF", "amyloid nucleation score": "0.502 ± 0.43"}
{"substance": "GQHMASNLERMV", "amyloid nucleation score": "3.34 ± 0.085"}
{"substance": "GQTITP", "amyloid nucleation score": "-0.689 ± 1"}
{"substance": "GRFRSTTVWFWVLDVLYGCS", "amyloid nucleation score": "0.547 ± 0.29"}
{"substance": "GRFVEMRLEHYRLNSRENSL", "amyloid nucleation score": "-1.75 ± 2.7"}
{"substance": "GRGANLCYRTRTVLLVNNLS", "amyloid nucleation score": "-0.199 ± 1.2"}
{"substance": "GRGVPGCGCIRDRSLMTNWS", "amyloid nucleation score": "-0.664 ± 0.41"}
{"substance": "GRKIDCGRLIMIAVRCNQVA", "amyloid nucleation score": "0.358 ± 0.41"}
{"substance": "GRLSGYEWGRKSRSPGRWTV", "amyloid nucleation score": "0.438 ± 1.1"}
{"substance": "GRMHKLVNCRAFTGLYKGIY", "amyloid nucleation score": "-1.03 ± 0.62"}
{"substance": "GRMTFFLVWNCVSFFVTQLL", "amyloid nucleation score": "-0.611 ± 2.1"}
{"substance": "GRREMEGTHIKKICRGGRTR", "amyloid nucleation score": "1.53 ± 0.73"}
{"substance": "GRRYCRANSWLATTSSRISL", "amyloid nucleation score": "2.1 ± 0.44"}
{"substance": "GRSLSFLLIGKYWQYTTQAR", "amyloid nucleation score": "inactive"}
{"substance": "GRVCKHIFK", "amyloid nucleation score": "0.375 ± 1.2"}
{"substance": "GRVLDGRILLPVILSVWGCS", "amyloid nucleation score": "-0.563 ± 1.1"}
{"substance": "GRYILGFE", "amyloid nucleation score": "2.17 ± 0.17"}
{"substance": "GSCLIRASFQVHMILSSGHL", "amyloid nucleation score": "inactive"}
{"substance": "GSDMCKSSVSECIKKLATIQ", "amyloid nucleation score": "inactive"}
{"substance": "GSHSRGY", "amyloid nucleation score": "-0.289 ± 0.36"}
{"substance": "GSKKYQIMSVSELKVQCCGS", "amyloid nucleation score": "0.445 ± 0.34"}
{"substance": "GSKRT", "amyloid nucleation score": "0.316 ± 0.42"}
{"substance": "GSMDCLYVSYLGNYENRYRG", "amyloid nucleation score": "0.232 ± 0.79"}
{"substance": "GSNLVQKRRCYSWMSLYLSS", "amyloid nucleation score": "0.333 ± 0.26"}
{"substance": "GSPLVVSKTVVFMSGNF", "amyloid nucleation score": "7.149 ± 0.052"}
{"substance": "GSQIWW", "amyloid nucleation score": "0.517 ± 0.46"}
{"substance": "GSQMYNVHVVCVT", "amyloid nucleation score": "0.154 ± 0.73"}
{"substance": "GSRLCRMSSSMIGSLRVIWG", "amyloid nucleation score": "-0.146 ± 0.25"}
{"substance": "GSSRDNGQFYSFELS", "amyloid nucleation score": "0.398 ± 0.64"}
{"substance": "GSSRKSIVNIRILPSFALAE", "amyloid nucleation score": "-0.272 ± 0.52"}
{"substance": "GSTENTVYRRGEFGELVWKC", "amyloid nucleation score": "-0.311 ± 0.44"}
{"substance": "GSVAFFNLNMLRVLYIIYER", "amyloid nucleation score": "0.369 ± 0.36"}
{"substance": "GSWQDSRRNFWSGRGMFERV", "amyloid nucleation score": "0.484 ± 0.47"}
{"substance": "GSYGERIGEDVVNFARSYNG", "amyloid nucleation score": "0.267 ± 0.38"}
{"substance": "GSYGNDVWRP", "amyloid nucleation score": "-0.041 ± 0.47"}
{"substance": "GSYWWDCFVNGGYEKFCTVP", "amyloid nucleation score": "0.191 ± 0.68"}
{"substance": "GTIWYITLAGRFNDVIIYTM", "amyloid nucleation score": "2.4 ± 0.077"}
{"substance": "GTREPDFGCKLDWDSY", "amyloid nucleation score": "0.924 ± 0.25"}
{"substance": "GTSSRNLAFLVPWMVYMRVR", "amyloid nucleation score": "0.635 ± 0.41"}
